No end group written: not given here.
T1: NgR (Homo sapiens, UniProt Q9BZR6)
T1 construct: expressed in transfected cells; host or cells: COS-7
T1 sequence (Q9BZR6 27-447): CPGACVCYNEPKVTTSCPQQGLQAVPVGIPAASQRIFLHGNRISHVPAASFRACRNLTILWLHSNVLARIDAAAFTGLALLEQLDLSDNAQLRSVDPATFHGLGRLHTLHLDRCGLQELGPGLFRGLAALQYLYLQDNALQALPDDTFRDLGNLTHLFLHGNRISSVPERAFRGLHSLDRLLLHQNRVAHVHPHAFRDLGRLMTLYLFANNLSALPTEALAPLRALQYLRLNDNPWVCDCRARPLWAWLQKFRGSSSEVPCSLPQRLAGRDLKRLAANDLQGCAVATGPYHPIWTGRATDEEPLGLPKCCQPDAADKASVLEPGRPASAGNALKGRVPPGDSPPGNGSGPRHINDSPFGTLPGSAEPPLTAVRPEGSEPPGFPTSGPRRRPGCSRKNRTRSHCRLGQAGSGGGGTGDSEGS


Target: T1, NgR
Assay: AP fusion protein binding to NgR expressing COS-7 cells
Settings: for NgR Kd (nM) / Kd: AP fused Amino-Nogo fragments in conditioned media on NgR expressing COS-7 cells, 'No binding at' cells continue on the next line: AmNg A 150 nM, a.a. 1000-1018, a.a. 1005-1018, Amino of NgC 25 nM, a.a. 950-1004 50 nM, Amino of NgB 100 nM; for binding to NgR (COS-7 cells expressing NgR): qualitative
Excerpt: Several alkaline phosphatase (AP) fusion proteins containing various Nogo-A segments derived from regions between the amino terminus and the first hydrophobic segment were examined to identify the mechanism of Amino-Nogo-A action. To generate additional AP fusion proteins, human amino Nogo fragments were amplified and ligated to the pcAP6 vector digested with restriction enzymes EcoRI and XhoI as described (Fournier, A. E., et al., Nature 409:341-346 (2001)). Plasmids were then transfected into HEK293T cells and conditioned media were collected after 7 days. None of these fragments bind with high affinity to non-transfected COS-7 cells. […] This binding is saturable with a Kd indistinguishable from that for AP-Nogo-66 association with NgR (Table I). To better define the region responsible for Amino-Nogo interaction with NgR, a range of truncation mutants of Amino-Nogo were examined as AP fusion proteins. […] In fact, the NgR-interacting segment of Amino-Nogo is fully accounted for in the extreme carboxyl 24 amino acids (aa 995-1018, Amino-Nogo-A-24) (Table I and FIG. 1D). […] We named this domain (aa 995-1013) as Amino-Nogo-A-19.
Binding Kds for AP fused Amino-Nogo fragments were measured by applying conditioned media containing AP fusion protein to NgR expressing COS-7 cells. Bound AP was stained and measured.
It has been recognized that the Amino-Nogo-A protein inhibits non-neuronal cell spreading and axonal outgrowth when the protein is substrate bound (Chen, M. S., et al., Nature 403:434-439 (2000); Fournier, A. E., et al., Nature 409:341-346 (2001)). […] The later domain has been termed Δ20. To determine whether the NgR-interacting aa of Amino-Nogo-A described in Example 1 regulate cell spreading and axonal outgrowth, various fragments were expressed as GST fusion proteins and purified from E. coli. To generate GST fusion proteins, amino Nogo fragments were cloned in pGEX2T (Amersham Pharmacia). Native and soluble GST fusion proteins were expressed and purified as described (GrandPre, T., et al., Nature 403:439-444 (2000)). COS-7 binding assays were done as described (Fournier, A. E., et al., Nature 409:341-346 (2001)). Bound AP to COS-7 cells was measured using NIH image software. Fibroblast spreading and cDRG outgrowth assay were done as described (Fournier, A. E., et al., Nature 409:341-346 (2001)) with some modifications. Briefly, 50 μl of purified GST fusion protein or peptides diluted in PBS was pipetted into polylysine precoated 96 well plates (Becton Dickson Biocoat plates) and dried overnight at room temperature. For fibroblast spreading assay, subconfluent COS-7 cells were then plated for 1 hour in serum containing medium before fixation and staining with rho damine-phalloidin.

| NgR Kd (nM) | Kd | Kd for binding of AP-B4C-66 to NgR (NgR expressing COS-7 cells, FIGS. 6A and 6B) | Molecule | binding to NgR (COS-7 cells expressing NgR) |
| --- | --- | --- | --- | --- |
| No binding | – | – | MDGQKKNWKDKVVDLLYWRDIKKTG (not fully specified) [Amino of NgC, AP fusion protein of Amino-Nogo residues of Nogo-C] | fail to associate with NgR-expressing cells |
| No binding | – | – | LSKTSVVDLLYWRDIKKTG (also: alkaline phosphatase fusion; UniProt Q9NQC3 1000-1018, looked up, fragment) [a.a. 1000-1018, AP fusion protein of Nogo-A aa 1000-1018] | – |
| No binding | – | – | ............IFSAELSKTS (LLPPDVSALATQAEIESIVKPKVLVKEAEKKLPSDTEKEDRSPSAIFSAELSKTS; also: alkaline phosphatase fusion; UniProt Q9NQC3 950-1004, looked up, fragment) [a.a. 950-1004, AP fusion protein of aa from the Nogo-A-specific region alone] | do not bind to NgR |
| No binding | – | – | VVDLLYWRDIKKTG (also: alkaline phosphatase fusion; UniProt Q9NQC3 1005-1018, looked up, fragment) [a.a. 1005-1018, AP fusion protein of Nogo-A aa 1005-1018] | – |
| – | 4.55 ± 3.66 nM | – | IFSAELSKTSVVDLLYWRDIK [a.a. 995-1015] | – |
| – | 6.66 ± 1.49 nM | – | a.a. 622-1018 (AmNg B): AP fusion protein of the carboxyl half of Amino-Nogo (fragment B), aa 622-1018 (protein, left off: large carriers) SAVPSAGASVIQPSSSPLEASSVNYESIKHEPENPPPYEEAMSVSLKKVSGIKEEIKEPENINAALQETEAPYISIACDLIKETKLSAEPAPDFSDYSEMAKVEQPVPDHSELVEDSSPDSEPVDLFSDDSIPDVPQKQDETVMLVKESLTETSFESMIEYENKEKLSALPPEGGKPYLESFKLSLDNTKDTLLPDEVSTLSKKEKIPLQMEELSTAVYSNDDLFISKEAQIRETETFSDSSPIEIIDEFPTLISSKTDSFSKLAREYTDLEVSHKSEIANAPDGAGSLPCTELPHDLSLKNIQPKVEEKISFSDDFSKNGSATSKVLLLPPDVSALATQAEIESIVKPKVLVKEAEKKLPSDTEKEDRSPSAIFSAELSKTSVVDLLYWRDIKKTG | high affinity binding |
| – | – | subnanomolar | AP-B4C-66: AP fusion protein with the B4C fragment of Amino-Nogo-A fused directly to Nogo-66 (protein, left off: large carriers) LLPPDVSALATQAEIESIVKPKVLVKEAEKKLPSDTEKEDRSPSAIFSAELSKTSVVDLLYWRDIKKTGRIYKGVIQAIQKSDEGHPFRAYLESEVAISEELVQKYSNSALGHVNCTIKELRRLFLVDDLVDSLK | – |
| – | 9.01 ± 6.36 nM | – | a.a. 877-1018 (AmNg B4): AP fusion protein of Amino-Nogo fragment B4, aa 877-1018 (protein, left off: large carriers) SKTDSFSKLAREYTDLEVSHKSEIANAPDGAGSLPCTELPHDLSLKNIQPKVEEKISFSDDFSKNGSATSKVLLLPPDVSALATQAEIESIVKPKVLVKEAEKKLPSDTEKEDRSPSAIFSAELSKTSVVDLLYWRDIKKTG | – |
| No binding | – | – | Amino of NgB: AP fusion protein of Amino-Nogo residues of Nogo-B (protein, left off: large carriers, AP fusion protein of Amino-Nogo residues of Nogo-B) MEDLDQSPLVSSSDSPPRPQPAFKYQFVREPEDEEEEEEEEEEDEDEDLEELEVLERKPAAGLSAAPVPTAPAAGAPLMDFGNDFVPPAPRGPLPAAPPVAPERQPSWDPSPVSSTVPAPSPLSAAAVSPSKLPEDDEPPARPPPPPPASVSPQAEPVWTPPAPAPAAPPSTPAAPKRRGSSGSVVVDLLYWRDIKKTG | fail to associate with NgR-expressing cells |

— patent US20090111753A1, “Nogo-A Polypeptide Fragments, Variant Nogo Receptor-1 Polypeptides, and Uses Thereof” (Yale University, priority 2004, published 2009)
